By EC50 is commonly meant the concentration that produces a half-maximal response. Read a high EC50 as a less potent agent.

The test deals with JL14 HR2 peptide (JL14). Briefly: peptide ELISA.

B1: CV3-25 (antibody)
chain 1: QVQLVESGAEVKKPGESLKISCKGSGYTFTRYWIGWVRQMPGKGLEWMGIIYPGDSDTRYSPSFQGHVTISADKSISTAYLQWNSLKASDTAMYYCARLPQYCSNGVCQRWFDPWGQGTLVTVSS
chain 2: EIVLTQSPSSVSASVGDRVTITCRASQGISSWLAWYQQKPGKAPKLLIYAASSLQSGVPSRFSGSGSGTDFTLTISSLQPEDFATYYCQQGNSFPYTFGQGTNLEIK
The molecule B1 had an EC50 of 0.0176 µg/mL.

B2: hr2.020 (antibody, V domains shown)
VH: EVQLVQSGAEVKKPGESLKISCKGSGYRFASHWIGWVRQMPGKGLQWMGIIYPGDSDTKYSPSFQGQVTISADKSINTVYLHWTSLKASDTAVYYCARRPPHLDGGDSPIRFDHWGQGTLVTVSS
VL: QSVLTQPPSASGTPGQRVTISCSGSRSNIGSNDVYWYQQFPGTAPKLLIYRNNQRPSGVPDRFSGSKSGTSASLAISGLRSEDEADYYCATWDDRLTGVFGGGTKLTVV
B2 came in with an EC50 of 0.0351 µg/mL.

Values taken from US20250382354A1.
